# B1: PPEF2 (parent)
# chain: AFKAAALIQRWYRRYVARLEMRRR
# Variants of: B1
# Assay: protein stability index of a GFP-peptide fusion (GPS, HEK-293T) (PSI 1-6); higher = more stable
# Conditions: c terminus: a fixed tail appended
# 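Further: lentivirally expressed fusions sorted by FACS into six bins by GFP to DsRed ratio, PSI derived from sequencing read proportions per bin multiplied by bin number.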
row,Variant,protein stability index
1,AFKAAALIQRWYRRYVARSEMRRR [L19S],4.1
2,AFKAAALIQRWYRRYVARFEMRRR [L19F],2.45
3,AFKAAALIQRWYRRYVARLEMRRT [R24T],2.48
4,AFKAAALIQRWYRRYVARLEMRRA [R24A],3.72
5,AFKAAALIQRWYRRYVARLEMRRL [R24L],2.9
6,AFKAAALIQRWYRRYVARLEMRRV [R24V],2.34
7,AFKAAALIQRWYRRYVARLEMRRP [R24P],2.39
8,AFKAAALIQRWYRRYVARLEMRRE [R24E],3
9,AFKAAALIQRWYRRYVARLEMRRW [R24W],1.99
10,AFKAAALIQRWYRRYVARLEMRRM [R24M],2.45
11,AFKAAALIQRWYRRYVARLEMRRY [R24Y],2.87
12,AFKAAALIQRWYRRYVARLEMRRS [R24S],2.63
13,AFKAAALIQRWYRRYVARLEMRRQ [R24Q],3.32
14,AFKAAALIQRWYRRYVARLEMRRG [R24G],3.09
15,AFKAAALIQRWYRRYVARLEMRRF [R24F],1.81
16,AFKAAALIQRWYRRYVARLEMRRK [R24K],2.75
17,AFKAAALIQRWYRRYVARLEMRRH [R24H],3.78
18,AFKAAALIQRWYRRYVARLEMRRC [R24C],1.97
19,AFKAAALIQRWYRRYVARLEMRRN [R24N],3.62
20,AFKAAALIQRWYRRYVARLEVRRR [M21V],3.7
21,AFKAAALIQRWYRRYVARLEERRR [M21E],4.73
22,AFKAAALIQRWYRRYVARLERRRR [M21R],2.36
23,AFKAAALIQRWYRRYVARLEARRR [M21A],2.44
24,AFKAAALIQRWYRRYVARLETRRR [M21T],3.06

row,Variant,protein stability index
1,AFKAAALIQRWYRRYVARLEKRRR [M21K],2.69
2,AFKAAALIQRWYRRYVARLEDRRR [M21D],2.98
3,AFKAAALIQRWYRRYVARLEFRRR [M21F],3.32
4,AFKAAALIQRWYRRYVARLELRRR [M21L],3.39
5,AFKAAALIQRWYRRYVARLEIRRR [M21I],3.54
6,AFKAAALIQRWYRRYVARLEQRRR [M21Q],4.15
7,AFKAAALIQRWYRRYVARLENRRR [M21N],3.3
8,AFKAAALIQRWYRRYVARLESRRR [M21S],2.11
9,AFKAAALIQRWYRRYVARLEYRRR [M21Y],3.42
10,AFKAAALIQRWYRRYVARLEPRRR [M21P],2.18
11,AFKAAALIQRWYRRYVARLEHRRR [M21H],3.83
12,AFKAAALIQRWYRRYVARLECRRR [M21C],3.34
13,AFKAAALIQRWYRRYVARLEMNRR [R22N],3.83
14,AFKAAALIQRWYRRYVARLEMCRR [R22C],2.01
15,AFKAAALIQRWYRRYVARLEMDRR [R22D],2.24
16,AFKAAALIQRWYRRYVARLEMMRR [R22M],1.75
17,AFKAAALIQRWYRRYVARLEMSRR [R22S],2.68
18,AFKAAALIQRWYRRYVARLEMPRR [R22P],1.52
19,AFKAAALIQRWYRRYVARLEMYRR [R22Y],2.42
20,AFKAAALIQRWYRRYVARLEMWRR [R22W],2.52
21,AFKAAALIQRWYRRYVARLEMVRR [R22V],1.66
22,AFKAAALIQRWYRRYVARLEMQRR [R22Q],2.74
23,AFKAAALIQRWYRRYVARLEMLRR [R22L],3.12
24,AFKAAALIQRWYRRYVARLEMIRR [R22I],1.89

row,Variant,protein stability index
1,AFKAAALIQRWYRRYVARLEMTRR [R22T],3.82
2,AFKAAALIQRWYRRYVARLEMFRR [R22F],2.32
3,AFKAAALIQRWYRRYVQRLEMRRR [A17Q],3.62
4,AFKAAALIQRWYRRYVWRLEMRRR [A17W],2.66
5,AFKAAALIQRWYRRYVVRLEMRRR [A17V],3.84
6,AFKAAALIQRWYRRYVLRLEMRRR [A17L],3.75
7,AFKAAALIQRWYRRYVPRLEMRRR [A17P],2.09
8,AFKAAALIQRWYRRYVRRLEMRRR [A17R],3.67
9,AFKAAALIQRWYRRYVKRLEMRRR [A17K],3.57
10,AFKAAALIQRWYRRYVTRLEMRRR [A17T],3.34
11,AFKAAALIQRWYRRYVHRLEMRRR [A17H],2.63
12,AFKAAALIQRWYRRYVGRLEMRRR [A17G],3.96
13,AFKAAALIQRWYRRYVFRLEMRRR [A17F],2.6
14,AFKAAALIQRWYRRYVIRLEMRRR [A17I],2.96
15,AFKAAALIQRWYRRYVNRLEMRRR [A17N],3.84
16,AFKAAALIQRWYRRYVSRLEMRRR [A17S],3.2
17,AFKAAALIQRWYRRYVYRLEMRRR [A17Y],2.76
18,AFKAAALIQRWYRRYVAGLEMRRR [R18G],1.95
19,AFKAAALIQRWYRRYVAMLEMRRR [R18M],1.45
20,AFKAAALIQRWYRRYVAELEMRRR [R18E],1.96
21,AFKAAALIQRWYRRYVATLEMRRR [R18T],2.41
22,AFKAAALIQRWYRRYVAPLEMRRR [R18P],2.09
23,AFKAAALIQRWYRRYVACLEMRRR [R18C],2.25
24,AFKAAALIQRWYRRYVAFLEMRRR [R18F],3.27

row,Variant,protein stability index
1,AFKAAALIQRWYRRYVANLEMRRR [R18N],2.71
2,AFKAAALIQRWYRRYVADLEMRRR [R18D],1.66
3,AFKAAALIQRWYRRYVAWLEMRRR [R18W],2.77
4,AFKAAALIQRWYRRYVAKLEMRRR [R18K],2.54
5,AFKAAALIQRWYRRYVAALEMRRR [R18A],2.12
6,AFKAAALIQRWYRRYVAILEMRRR [R18I],2.06
7,AFKAAALIQRWYRRYVAYLEMRRR [R18Y],3.1
8,AFKAAALIQRWYRRYVARLYMRRR [E20Y],3.25
9,AFKAAALIQRWYRRYVARLTMRRR [E20T],2.65
10,AFKAAALIQRWYRRYVARLDMRRR [E20D],3.02
11,AFKAAALIQRWYRRYVARLIMRRR [E20I],2.63
12,AFKAAALIQRWYRRYVARLQMRRR [E20Q],4.2
13,AFKAAALIQRWYRRYVARLMMRRR [E20M],2.39
14,AFKAAALIQRWYRRYVARLWMRRR [E20W],4.21
15,AFKAAALIQRWYRRYVARLLMRRR [E20L],2.69
16,AFKAAALIQRWYRRYVARLFMRRR [E20F],3.06
17,AFKAAALIQRWYRRYVARLGMRRR [E20G],3.31
18,AFKAAALIQRWYRRYVARLPMRRR [E20P],3.41
19,AFKAAALIQRWYRRYVARLNMRRR [E20N],4.16
20,AFKAAALIQRWYRRYVARLHMRRR [E20H],3.46
21,AFKAAALIQRWYRRYVARLVMRRR [E20V],2.32
22,AFKAAALIQRWYRRYVARLSMRRR [E20S],3.65

# From the supplement of paper PMC10567573
